Laboratory results published in US20260250338A1 (Molecular Partners, published 2026).

T1: CD32a expressed on Jurkat-NFAT-CD32a reporter cells (Invivogen jktl-nfat-cd32) (UniProt P12318 34-317, limits assumed)
T1 construct: whole, on cells; also called Jurkat-Lucia NFAT-CD32a Reporter cells; Fc receptor CD32a
T1 sequence (looked up): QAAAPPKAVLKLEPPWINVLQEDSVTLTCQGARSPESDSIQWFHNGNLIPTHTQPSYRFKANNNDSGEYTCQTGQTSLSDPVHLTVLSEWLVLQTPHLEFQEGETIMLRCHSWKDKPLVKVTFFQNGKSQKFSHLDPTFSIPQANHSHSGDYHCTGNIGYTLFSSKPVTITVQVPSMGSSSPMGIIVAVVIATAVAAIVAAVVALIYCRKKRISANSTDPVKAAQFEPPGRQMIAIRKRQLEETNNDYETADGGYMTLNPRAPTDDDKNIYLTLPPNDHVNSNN


What was measured:
[1] = biological target: T2, CD16aV allotype of human CD16a expressed on Jurkat-Lucia-NFAT-CD16 Reporter cells (InvivoGen) (human, UniProt P08637 17-254); test: cell-based or functional assay
[2] = biological target: T2, CD16aV allotype of human CD16a …; test: cell-based or functional assay; remark: listed apart in the source
[3] = biological target: T1, CD32a expressed on Jurkat-NFAT-CD32a …; test: flow cytometry on Jurkat-NFAT-CD32a cells, 4-fold serial dilutions, detection with anti-DARPin 1.1.1 antibody
Experimental: Serial dilutions (4-fold) of the constructs were incubated 30 min at 4° C. with 50000 cells in a 96-well plate. Detection antibody (anti-DARPin 1.1.1 Alexa Fluor […]) was subsequently added to the wells (2 μg/ml diluted in FACS buffer) and incubated at 4° C. for 30 min. Cold buffer was added, then cells were spun down prior to supernatant removal. Cells were then fixed with Cell fix buffer (BD) and signal was measured by flow cytometry.

[4] = biological target: T3, full length human CD16b stably expressed on transduced WT Jurkat cells (human, UniProt O75015 17-200); test: flow cytometry on Jurkat-CD16b cells, serial dilutions, detection with Penta-His Alexa Fluor 647
T3 construct: whole, on cells; also called CD16b expressing cells; Jurkat CD16b
T3 sequence (O75015 17-200): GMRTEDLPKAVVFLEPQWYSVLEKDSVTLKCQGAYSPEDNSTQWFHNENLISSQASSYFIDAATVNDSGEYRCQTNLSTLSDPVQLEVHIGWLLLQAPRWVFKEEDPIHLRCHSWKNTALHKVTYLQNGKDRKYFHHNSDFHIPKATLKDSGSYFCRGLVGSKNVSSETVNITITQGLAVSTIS

T2 sequence (P08637 17-254 F176V): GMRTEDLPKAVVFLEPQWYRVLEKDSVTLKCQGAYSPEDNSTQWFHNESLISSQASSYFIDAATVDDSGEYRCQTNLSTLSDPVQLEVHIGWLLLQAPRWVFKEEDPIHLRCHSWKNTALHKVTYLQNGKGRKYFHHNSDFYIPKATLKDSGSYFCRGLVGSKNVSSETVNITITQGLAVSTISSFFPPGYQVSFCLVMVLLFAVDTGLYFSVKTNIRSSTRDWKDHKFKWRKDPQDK

| Binder | EC50 (pM), DDCC reporter assay (luminescence), Kasumi-1 target cells, E:T 1:1, 24 h [1] [pM] | Top (RLU), DDCC reporter assay (luminescence), Kasumi-1 target cells [1] [RLU] | EC50 (pM), ADCC reporter assay (luminescence), SKOV3 target cells, E:T 5:1, 5 h [2] [pM] | binding result [3] | binding result [4] |
| --- | --- | --- | --- | --- | --- |
| Construct No. 22 (SEQ ID NO: 91), CD117 × CD16a, CD117 binder SEQ ID NO: 86 and DARPin #2 (designed binder) MRGSHHHHHHGSDLGKKLLQAARAGQLDEVRELLKAGADVNAKDVYGLTPLHLAAREGHLEIVEVLLKAGADVNAKDAYGETPLHLAAEAGHLEIVEVLLKAGADVNAKDEWGETPLNVAARAGHQDIAEVLQKAAGSPTPTPTTPTPTPTTPTPTPTGSDLGQKLLRAAKKGQDDEVRELLKAGADVNAKDEQGWTPLHIAAWKGHLEIVEVLLKAGADVNAKDVFDWTPLHVAAHFGHLEIVEVLLKAGADVNAQDRAGETPADLAAQAGHEDIAEVLQKAA | 25.2 | 22000 |  |  |  |
| Construct No. 9 (SEQ ID NO: 14), 2D (HER2 × CD16a), DARPin #3 with N-terminal HER2 binder of SEQ ID NO: 8 (designed binder) MRGSHHHHHHGSDLGKKLLEAARAGQDDEVRELLKAGADVNAKDEYGLTPLYLATAHGHLEIVEVLLKAGADVNAVDAIGFTPLHLAAFIGHLEIAEVLLKAGADVNAQDKFGKTPADIAAGAGNEDIAEVLQKAAGSPTPTPTTPTPTPTTPTPTPTGSDLGKKLLQAARAGQLDEVRELLKAGADVNAKDEQGRTPLHIAAASGHLEIVEVLLKAGADVNAKDWFGITPLHIAAWWGHLEIVEVLLKAGADVNAKDQEGRTPLHIAAAIGHLEIVEVLLKAGADVNAQDKSGKTPADLAARAGHQDIAEVLQKAA |  |  | 1.6 |  |  |
| Construct No. 11 (SEQ ID NO: 18), 2D (CD16a × HER2), DARPin #1 with C-terminal HER2 binder of SEQ ID NO: 9 (designed binder) MRGSHHHHHHGSDLGKKLLQAARAGQLDEVRELLKAGADVNAKDWSGFTPLHIAAVQGHLEIVEVLLKAGADVNAKDHSGWTPLHVAAFSGHLEIVEVLLKAGADVNAKDATGQTPLHLAARTGHLEIVEVLLKAGADVNAQDKSGKTPADLAARAGHQDIAEVLQKAAGSPTPTPTTPTPTPTTPTPTPTGSDLGIKLLFAAAKGQDDEVRELLKAGADVNAKDFQGVTPLHIAAQSGHLEIVEVLLKAGADVNAKDVTGDTPLHLAAQHGHLEIVEVLLKAGADVNAQDERGWTPADLAADWGHEDIAEVLQKAA |  |  | 4.1 |  |  |
| Construct No. 10 (SEQ ID NO: 16), 2D (CD16a × HER2), DARPin #3 with C-terminal HER2 binder of SEQ ID NO: 8 (designed binder) MRGSHHHHHHGSDLGKKLLQAARAGQLDEVRELLKAGADVNAKDEQGRTPLHIAAASGHLEIVEVLLKAGADVNAKDWFGITPLHIAAWWGHLEIVEVLLKAGADVNAKDQEGRTPLHIAAAIGHLEIVEVLLKAGADVNAQDKSGKTPADLAARAGHQDIAEVLQKAAGSPTPTPTTPTPTPTTPTPTPTGSDLGKKLLEAARAGQDDEVRELLKAGADVNAKDEYGLTPLYLATAHGHLEIVEVLLKAGADVNAVDAIGFTPLHLAAFIGHLEIAEVLLKAGADVNAQDKFGKTPADIAAGAGNEDIAEVLQKAA |  |  | 24 |  |  |
| Construct No. 20 (SEQ ID NO: 89), CD117 × CD16a, CD117 binder SEQ ID NO: 84 and DARPin #2 (designed binder) MRGSHHHHHHGSDLGQKLLKAAQYGQDDEVRILLAAGADVNAKDWAGKTPLHVAAEAGHLEIVEVLLKAGADVNAKDKAGETPLHLAAEQGHLEIVEVLLKAGADVNAQDEWGQTPADLAAYYGLEDIAEVLQKAAGSPTPTPTTPTPTPTTPTPTPTGSDLGQKLLRAAKKGQDDEVRELLKAGADVNAKDEQGWTPLHIAAWKGHLEIVEVLLKAGADVNAKDVFDWTPLHVAAHFGHLEIVEVLLKAGADVNAQDRAGETPADLAAQAGHEDIAEVLQKAA | 86.2 | 26500 |  |  |  |
| Construct No. 21 (SEQ ID NO: 90), CD117 × CD16a, CD117 binder SEQ ID NO: 85 and DARPin #2 (designed binder) MRGSHHHHHHGSDLGAKLLKAAQSGQDDEVRILLAAGADVNAKDKDGYTPLHLAAREGHLEIVEVLLKAGSDVNAKDYYGETPLHQAAEYGHLEIVEVLLKAGADVNAQDEWGATPADLAAQQGHEDIAEVLQKAAGSPTPTPTTPTPTPTTPTPTPTGSDLGQKLLRAAKKGQDDEVRELLKAGADVNAKDEQGWTPLHIAAWKGHLEIVEVLLKAGADVNAKDVFDWTPLHVAAHFGHLEIVEVLLKAGADVNAQDRAGETPADLAAQAGHEDIAEVLQKAA | 32.3 | 23200 |  |  |  |
| Construct No. 23 (SEQ ID NO: 92), CD117 × CD16a, CD117 binder SEQ ID NO: 87 and DARPin #2 (designed binder) MRGSHHHHHHGSDLGKKLLKAASWGQDDEVRILLAAGADVNAKDNSGWTPLHAAAWYGHLEIVEVLLKAGADVNAKDKTGLTPLHKAAHVGHLEIVEVLLKAGADVNAQDEWGATPADLAASTGHEDIAEVLQKAAGSPTPTPTTPTPTPTTPTPTPTGSDLGQKLLRAAKKGQDDEVRELLKAGADVNAKDEQGWTPLHIAAWKGHLEIVEVLLKAGADVNAKDVFDWTPLHVAAHFGHLEIVEVLLKAGADVNAQDRAGETPADLAAQAGHEDIAEVLQKAA | 120 | 7870 |  |  |  |

The next lines start with the values.

| EC50 (pM), DDCC reporter assay (luminescence), Kasumi-1 target cells, E:T 1:1, 24 h [1] [pM] | Top (RLU), DDCC reporter assay (luminescence), Kasumi-1 target cells [1] [RLU] | EC50 (pM), ADCC reporter assay (luminescence), SKOV3 target cells, E:T 5:1, 5 h [2] [pM] | binding result [3] | binding result [4] | Binder |
| --- | --- | --- | --- | --- | --- |
|  |  | 0.24 | no binding (tested: 400 nM) |  | Construct No. 8 (SEQ ID NO: 12), 2D (CD16a × HER2), DARPin #2 with C-terminal HER2 binder of SEQ ID NO: 8 (designed binder, Bispecific DARPin; also called Construct 8) MRGSHHHHHHGSDLGQKLLRAAKKGQDDEVRELLKAGADVNAKDEQGWTPLHIAAWKGHLEIVEVLLKAGADVNAKDVFDWTPLHVAAHFGHLEIVEVLLKAGADVNAQDRAGETPADLAAQAGHEDIAEVLQKAAGSPTPTPTTPTPTPTTPTPTPTGSDLGKKLLEAARAGQDDEVRELLKAGADVNAKDEYGLTPLYLATAHGHLEIVEVLLKAGADVNAVDAIGFTPLHLAAFIGHLEIAEVLLKAGADVNAQDKFGKTPADIAAGAGNEDIAEVLQKAA |
| 96.1 | 8470 |  |  |  | Construct No. 24 (SEQ ID NO: 93), CD117 × CD16a, CD117 binder SEQ ID NO: 88 and DARPin #2 (designed binder) MRGSHHHHHHGSDLGHKLLHAAAWGQDDEVRILLAAGADVNAKDQSGWTPLHVAAWYGHLEIVEVLLKAGADVNAKDLKGETPLHLAALVGHLEIVEVLLKAGADVNAQDIAGDTPADLAAIAGHEDIAEVLQKAAGSPTPTPTTPTPTPTTPTPTPTGSDLGQKLLRAAKKGQDDEVRELLKAGADVNAKDEQGWTPLHIAAWKGHLEIVEVLLKAGADVNAKDVFDWTPLHVAAHFGHLEIVEVLLKAGADVNAQDRAGETPADLAAQAGHEDIAEVLQKAA |
|  |  | 0.39 | no binding (tested: 400 nM) | no binding (tested: 1000 nM) | Construct No. 5 (SEQ ID NO: 11), 2D (HER2 × CD16a), DARPin #2 with N-terminal HER2 binder of SEQ ID NO: 9 (designed binder, Bispecific DARPin; also called Construct 5) MRGSHHHHHHGSDLGIKLLFAAAKGQDDEVRELLKAGADVNAKDFQGVTPLHIAAQSGHLEIVEVLLKAGADVNAKDVTGDTPLHLAAQHGHLEIVEVLLKAGADVNAQDERGWTPADLAADWGHEDIAEVLQKAAGSPTPTPTTPTPTPTTPTPTPTGSDLGQKLLRAAKKGQDDEVRELLKAGADVNAKDEQGWTPLHIAAWKGHLEIVEVLLKAGADVNAKDVFDWTPLHVAAHFGHLEIVEVLLKAGADVNAQDRAGETPADLAAQAGHEDIAEVLQKAA |
|  |  | 3.5 |  | no binding (tested: 1000 nM) | Construct No. 6 (SEQ ID NO: 17), 2D (CD16a × HER2), DARPin #3 with C-terminal HER2 binder of SEQ ID NO: 9 (designed binder, Bispecific DARPin; also called Construct 6) MRGSHHHHHHGSDLGKKLLQAARAGQLDEVRELLKAGADVNAKDEQGRTPLHIAAASGHLEIVEVLLKAGADVNAKDWFGITPLHIAAWWGHLEIVEVLLKAGADVNAKDQEGRTPLHIAAAIGHLEIVEVLLKAGADVNAQDKSGKTPADLAARAGHQDIAEVLQKAAGSPTPTPTTPTPTPTTPTPTPTGSDLGIKLLFAAAKGQDDEVRELLKAGADVNAKDFQGVTPLHIAAQSGHLEIVEVLLKAGADVNAKDVTGDTPLHLAAQHGHLEIVEVLLKAGADVNAQDERGWTPADLAADWGHEDIAEVLQKAA |
